Paper PMC8809517, “Cofactor-independent RNA editing by a synthetic S-type PPR protein”
Changes are numbered by the printed parent chain.

T1: GFP-9S library array, motif 4 ND N98S;D124V (synthetic construct, N98S;D124V)
T1 chain: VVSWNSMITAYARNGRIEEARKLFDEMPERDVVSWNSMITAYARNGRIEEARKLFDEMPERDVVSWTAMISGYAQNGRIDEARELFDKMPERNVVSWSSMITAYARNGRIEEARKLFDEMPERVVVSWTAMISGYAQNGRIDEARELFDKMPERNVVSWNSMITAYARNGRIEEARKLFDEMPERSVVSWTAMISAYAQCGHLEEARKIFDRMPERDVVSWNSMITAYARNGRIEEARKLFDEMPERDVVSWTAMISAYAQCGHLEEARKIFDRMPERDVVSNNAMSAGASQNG

T2: GFP-9S library array, motif 4 ND N98V;D124H (synthetic construct, N98V;D124H)
T2 chain: T1 chain with S98V, V124H

T3: GFP-9S library array, motif 4 ND D124M (synthetic construct, D124M)
T3 chain: T1 chain with S98N, V124M

T4: GFP-9S library array, motif 4 ND N98Y;D124M (synthetic construct, N98Y;D124M)
T4 chain: T1 chain with S98Y, V124M

T5: GFP-9S library array, motif 4 ND N98P;D124I (synthetic construct, N98P;D124I)
T5 chain: T1 chain with S98P, V124I

B1: Cy5-rpoA (ssRNA)
RNA: AUUACACGUGA
B2: Cy5-rpoA-G (ssRNA)
RNA: AUUAGACGUGA
B3: IR-rpoA-U (ssRNA)
RNA: AUUAUACGUGA
B4: IR-rpoA-A (ssRNA)
RNA: AUUAAACGUGA

Key:
Test in all cases: high-throughput RNA pulldown from lysate on Ni-NTA beads; HRP: 50 mM Tris pH 8, 150 mM NaCl, 1 mM beta-mercaptoethanol, 50 ug/ml BSA, 3 ug/ml yeast RNA, 0.5% heparin; ITC and FP: Tris pH 8, 200 mM KCl, 5% glycerol; MST: 50 mM Tris pH 8, 200 mM NaCl, 1 mM DTT, BSA, heparin, 0.05% Tween 20
Details in all cases: tags: N-terminal His-eGFP
[1] = target: T1, GFP-9S library array, motif 4 ND …
[2] = target: T2, GFP-9S library array, motif 4 ND …
[3] = target: T3, GFP-9S library array, motif 4 ND D124M
[4] = target: T4, GFP-9S library array, motif 4 ND …
[5] = target: T5, GFP-9S library array, motif 4 ND …

Binder | Kd ([1]; label: 5' Cy5) [nM] | Kd ([2]; label: 5' Cy5) [nM] | Kd ([3]; label: 5' Cy5) [nM] | Kd ([4]; label: 5' Cy5) [nM] | Kd ([5]; label: 5' Cy5) [nM] | Kd ([1]; label: 5' IRDye 800CW) [nM] | Kd ([2]; label: 5' IRDye 800CW) [nM] | Kd ([3]; label: 5' IRDye 800CW) [nM] | Kd ([4]; label: 5' IRDye 800CW) [nM] | Kd ([5]; label: 5' IRDye 800CW) [nM]
B1 | 114 | 160 | 71.1 | 40.8 | 109 | – | – | – | – | –
B2 | 74.5 | 155 | 139 | 36.2 | 127 | – | – | – | – | –
B3 | – | – | – | – | – | 152 | 219 | 21.2 | 154 | 187
B4 | – | – | – | – | – | 51.2 | 209 | 78.1 | 124 | 272
